Bounds are passed on as bounds.

The text below walks through data of publication PMC4367269, “Probing the Acceptor Active Site Organization of the Human Recombinant β1,4-Galactosyltransferase 7 and Design of Xyloside-based Inhibitors” (The Journal of Biological Chemistry, 2015).

The target of series [1] is T1, hβ4GalT7 (GST-β4GalT7) (Homo sapiens, UniProt Q9UBV7).
T1 construct: gene B4GALT7; truncated soluble form lacking the first 60 N-terminal amino acids (transmembrane domain and part of stem), GST fusion (tag kept), pET-41a(+), E. coli BL21(DE3), glutathione-Sepharose purified
T1 sequence (Q9UBV7 61-327): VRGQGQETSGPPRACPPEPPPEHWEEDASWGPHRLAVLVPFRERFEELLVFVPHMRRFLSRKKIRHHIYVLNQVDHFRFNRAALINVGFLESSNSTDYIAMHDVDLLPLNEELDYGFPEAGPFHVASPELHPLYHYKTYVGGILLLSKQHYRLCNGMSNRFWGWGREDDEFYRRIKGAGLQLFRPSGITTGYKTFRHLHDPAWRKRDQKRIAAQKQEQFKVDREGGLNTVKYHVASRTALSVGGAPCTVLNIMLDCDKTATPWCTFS
The series is described as follows: galactosyltransferase competition assay, HPLC-UV. Format: biochemical. Particulars: 0.5 mM 4-MUX, 1 mM UDP-Gal, 10 mM MnCl2, 100 mM sodium cacodylate pH 7.0, 37 °C; IC50 and Ki not determined.

In series [2] the target is T1, hβ4GalT7 (GST-β4GalT7). Briefly: galactosyltransferase competition assay, HPLC-UV. It counts as biochemical. An excerpt: galactosyltransferase competition assay, HPLC-UV on hβ4GalT7 (GST-β4GalT7)
Substrate in series [3]: O=c1ccn([C@@H]2O[C@H](COP(=O)(O)OP(=O)(O)O[C@H]3O[C@H](CO)[C@H](O)[C@H](O)[C@H]3O)[C@@H](O)[C@H]2O)c(=O)[nH]1
The series is described as follows: galactosyltransferase assay, HPLC-UV. Format: biochemical, Homo sapiens. Particulars: apparent, fixed 5 mM 4-MUX, 10 mM MnCl2, 100 mM sodium cacodylate pH 7.0, 37 °C. The source says: (§1) galactosyltransferase assay, HPLC-UV on hβ4GalT7 (GST-β4GalT7)

Substrate in series [4]: Cc1cc(=O)oc2cc(O[C@@H]3OC[C@@H](O)[C@H](O)[C@H]3O)ccc12
The series is described as follows: galactosyltransferase assay, HPLC-UV. Format: biochemical, Homo sapiens. The settings on record: apparent, fixed 1 mM UDP-Gal, 10 mM MnCl2, 100 mM sodium cacodylate pH 7.0, 37 °C.
Excerpt: as §1

Turning to `O[C@H]1[C@H](Oc2ccc3ccccc3c2)OCC[C@@H]1O` [4H-Xyl-NP, Naphthyl-4-deoxy-β-D-xylopyranoside], on hβ4GalT7 (GST-β4GalT7) [1], the “% decrease of activity at the highest concentration (5 mM)” value is on record as under 25%.

Turning to `Cc1cc(=O)oc2cc(O[C@@H]3OCC[C@H](O)[C@H]3O)ccc12` [4H-Xyl-MU, 4-Methylumbelliferyl-4-deoxy-β-D-xylopyranoside], on hβ4GalT7 (GST-β4GalT7) [2], the IC50 (in general, the point on the concentration scale where inhibition reaches its midpoint) was found to be 1280 ± 220 µM and affinity was put at a Ki of 530 ± 100 µM.

B1: hβ4GalT7 (GST-β4GalT7) (Homo sapiens; H195R) (protein)
chain: VRGQGQETSGPPRACPPEPPPEHWEEDASWGPHRLAVLVPFRERFEELLVFVPHMRRFLSRKKIRHHIYVLNQVDHFRFNRAALINVGFLESSNSTDYIAMHDVDLLPLNEELDYGFPEAGPFHVASPELHPLYRYKTYVGGILLLSKQHYRLCNGMSNRFWGWGREDDEFYRRIKGAGLQLFRPSGITTGYKTFRHLHDPAWRKRDQKRIAAQKQEQFKVDREGGLNTVKYHVASRTALSVGGAPCTVLNIMLDCDKTATPWCTFS
notes: truncated soluble form lacking the first 60 N-terminal amino acids (transmembrane domain and part of stem), GST fusion (tag kept), pET-41a(+), E. coli BL21(DE3), glutathione-Sepharose purified
On to B1, for which, in series [3], the Km (usually the concentration of substrate that gives half-maximal velocity) was found to be 320 ± 20 µM; the kcat (in general, the number of substrate molecules converted per active site and unit of time at saturation) stood at 1.49 ± 0.0217 s⁻¹; the kcat/Km (as a rule, the second-order rate constant that governs catalysis at low substrate concentration) came out at 4920 M⁻¹ s⁻¹. Further, in series [4], the Km came out at 350 ± 30 µM, the catalytic constant (kcat) amounted to 1.49 ± 0.0217 s⁻¹ and the kcat/Km came to 4030 M⁻¹ s⁻¹.

B2: hβ4GalT7 (GST-β4GalT7) (Homo sapiens; R226K) (protein)
chain: VRGQGQETSGPPRACPPEPPPEHWEEDASWGPHRLAVLVPFRERFEELLVFVPHMRRFLSRKKIRHHIYVLNQVDHFRFNRAALINVGFLESSNSTDYIAMHDVDLLPLNEELDYGFPEAGPFHVASPELHPLYHYKTYVGGILLLSKQHYRLCNGMSNRFWGWGKEDDEFYRRIKGAGLQLFRPSGITTGYKTFRHLHDPAWRKRDQKRIAAQKQEQFKVDREGGLNTVKYHVASRTALSVGGAPCTVLNIMLDCDKTATPWCTFS
notes: as for B1
Turning to B2, in series [3], the Km amounted to 290 ± 20 µM, the kcat came out at 1.35 ± 0.0483 s⁻¹ and the catalytic efficiency (kcat/Km) was 4700 M⁻¹ s⁻¹. Further, in series [4], the Km was 460 ± 10 µM, the kcat is 1.35 ± 0.0483 s⁻¹ and the catalytic efficiency (kcat/Km) came out at 2920 M⁻¹ s⁻¹.

B3: hβ4GalT7 (GST-β4GalT7) (Homo sapiens; Y196F) (protein)
chain: VRGQGQETSGPPRACPPEPPPEHWEEDASWGPHRLAVLVPFRERFEELLVFVPHMRRFLSRKKIRHHIYVLNQVDHFRFNRAALINVGFLESSNSTDYIAMHDVDLLPLNEELDYGFPEAGPFHVASPELHPLYHFKTYVGGILLLSKQHYRLCNGMSNRFWGWGREDDEFYRRIKGAGLQLFRPSGITTGYKTFRHLHDPAWRKRDQKRIAAQKQEQFKVDREGGLNTVKYHVASRTALSVGGAPCTVLNIMLDCDKTATPWCTFS
notes: as for B1
For the molecule B3, in series [3], the Michaelis constant (Km) came to 340 ± 60 µM, the kcat was determined as 0.5 ± 0.0183 s⁻¹ and the kcat/Km came out at 1470 M⁻¹ s⁻¹. For the same molecule, in series [4], the Km was determined as 1060 ± 60 µM, the kcat was 0.5 ± 0.0183 s⁻¹ and the kcat/Km came to 467 M⁻¹ s⁻¹.

B4: hβ4GalT7 (GST-β4GalT7) (Homo sapiens; R270A) (protein)
chain: VRGQGQETSGPPRACPPEPPPEHWEEDASWGPHRLAVLVPFRERFEELLVFVPHMRRFLSRKKIRHHIYVLNQVDHFRFNRAALINVGFLESSNSTDYIAMHDVDLLPLNEELDYGFPEAGPFHVASPELHPLYHYKTYVGGILLLSKQHYRLCNGMSNRFWGWGREDDEFYRRIKGAGLQLFRPSGITTGYKTFRHLHDPAWRKRDQKAIAAQKQEQFKVDREGGLNTVKYHVASRTALSVGGAPCTVLNIMLDCDKTATPWCTFS
notes: as for B1
Regarding B4, in series [3], the Km came to 270 ± 10 µM, the kcat came to 0.773 ± 0.0033 s⁻¹ and the kcat/Km was 3070 M⁻¹ s⁻¹. Moreover, in series [4], the Km was 600 ± 20 µM, the turnover number (kcat) amounted to 0.773 ± 0.0033 s⁻¹ and the kcat/Km amounted to 1200 M⁻¹ s⁻¹.

B5: hβ4GalT7 (GST-β4GalT7) (Homo sapiens) (protein)
chain: VRGQGQETSGPPRACPPEPPPEHWEEDASWGPHRLAVLVPFRERFEELLVFVPHMRRFLSRKKIRHHIYVLNQVDHFRFNRAALINVGFLESSNSTDYIAMHDVDLLPLNEELDYGFPEAGPFHVASPELHPLYHYKTYVGGILLLSKQHYRLCNGMSNRFWGWGREDDEFYRRIKGAGLQLFRPSGITTGYKTFRHLHDPAWRKRDQKRIAAQKQEQFKVDREGGLNTVKYHVASRTALSVGGAPCTVLNIMLDCDKTATPWCTFS
notes: as for B1
For B5, in series [3], the Michaelis constant (Km) came out at 220 ± 20 µM, the kcat was found to be 1.51 ± 0.0383 s⁻¹ and the kcat/Km turned out to be 7080 M⁻¹ s⁻¹. Also, in series [4], the Km is 350 ± 20 µM, the kcat amounted to 1.51 ± 0.0383 s⁻¹ and the specificity constant (kcat/Km) was 4170 M⁻¹ s⁻¹.

B6: hβ4GalT7 (GST-β4GalT7) (Homo sapiens; R226A) (protein)
chain: VRGQGQETSGPPRACPPEPPPEHWEEDASWGPHRLAVLVPFRERFEELLVFVPHMRRFLSRKKIRHHIYVLNQVDHFRFNRAALINVGFLESSNSTDYIAMHDVDLLPLNEELDYGFPEAGPFHVASPELHPLYHYKTYVGGILLLSKQHYRLCNGMSNRFWGWGAEDDEFYRRIKGAGLQLFRPSGITTGYKTFRHLHDPAWRKRDQKRIAAQKQEQFKVDREGGLNTVKYHVASRTALSVGGAPCTVLNIMLDCDKTATPWCTFS
notes: as for B1
Take B6: in series [3], the Km was found to be 340 ± 30 µM, the kcat came to 0.893 ± 0.0333 s⁻¹ and the kcat/Km was determined as 2850 M⁻¹ s⁻¹. Also, in series [4], the Km was found to be 440 ± 50 µM, the kcat came to 0.893 ± 0.0333 s⁻¹ and the catalytic efficiency (kcat/Km) was 1870 M⁻¹ s⁻¹.

B7: hβ4GalT7 (GST-β4GalT7) (Homo sapiens; Y199F) (protein)
chain: VRGQGQETSGPPRACPPEPPPEHWEEDASWGPHRLAVLVPFRERFEELLVFVPHMRRFLSRKKIRHHIYVLNQVDHFRFNRAALINVGFLESSNSTDYIAMHDVDLLPLNEELDYGFPEAGPFHVASPELHPLYHYKTFVGGILLLSKQHYRLCNGMSNRFWGWGREDDEFYRRIKGAGLQLFRPSGITTGYKTFRHLHDPAWRKRDQKRIAAQKQEQFKVDREGGLNTVKYHVASRTALSVGGAPCTVLNIMLDCDKTATPWCTFS
notes: as for B1
On to B7, for which, in series [3], the Michaelis-Menten constant (Km) was found to be 320 ± 20 µM, the kcat came out at 1.2 ± 0.0967 s⁻¹ and the catalytic efficiency (kcat/Km) was found to be 4050 M⁻¹ s⁻¹. In series [4], the Km came to 590 ± 60 µM, the kcat is 1.2 ± 0.0967 s⁻¹ and the kcat/Km was found to be 1880 M⁻¹ s⁻¹.

B8: hβ4GalT7 (GST-β4GalT7) (Homo sapiens; R270K) (protein)
chain: VRGQGQETSGPPRACPPEPPPEHWEEDASWGPHRLAVLVPFRERFEELLVFVPHMRRFLSRKKIRHHIYVLNQVDHFRFNRAALINVGFLESSNSTDYIAMHDVDLLPLNEELDYGFPEAGPFHVASPELHPLYHYKTYVGGILLLSKQHYRLCNGMSNRFWGWGREDDEFYRRIKGAGLQLFRPSGITTGYKTFRHLHDPAWRKRDQKKIAAQKQEQFKVDREGGLNTVKYHVASRTALSVGGAPCTVLNIMLDCDKTATPWCTFS
notes: as for B1
Take B8: in series [3], the Km was 370 ± 20 µM, the catalytic constant (kcat) was determined as 0.812 ± 0.025 s⁻¹ and the kcat/Km stood at 2320 M⁻¹ s⁻¹. Also, in series [4], the Km is 540 ± 70 µM, the kcat came out at 0.812 ± 0.025 s⁻¹ and the kcat/Km is 1420 M⁻¹ s⁻¹.

B9: hβ4GalT7 (GST-β4GalT7) (Homo sapiens; H195A) (protein)
chain: VRGQGQETSGPPRACPPEPPPEHWEEDASWGPHRLAVLVPFRERFEELLVFVPHMRRFLSRKKIRHHIYVLNQVDHFRFNRAALINVGFLESSNSTDYIAMHDVDLLPLNEELDYGFPEAGPFHVASPELHPLYAYKTYVGGILLLSKQHYRLCNGMSNRFWGWGREDDEFYRRIKGAGLQLFRPSGITTGYKTFRHLHDPAWRKRDQKRIAAQKQEQFKVDREGGLNTVKYHVASRTALSVGGAPCTVLNIMLDCDKTATPWCTFS
notes: as for B1
Regarding B9, in series [3], the Km is 400 ± 20 µM, the kcat is 1.932 ± 0.162 s⁻¹ and the specificity constant (kcat/Km) stood at 4850 M⁻¹ s⁻¹. Further, in series [4], the Km is 640 ± 20 µM, the catalytic constant (kcat) was determined as 1.932 ± 0.162 s⁻¹ and the kcat/Km was found to be 3000 M⁻¹ s⁻¹.

B10: hβ4GalT7 (GST-β4GalT7) (Homo sapiens; H195Q) (protein)
chain: VRGQGQETSGPPRACPPEPPPEHWEEDASWGPHRLAVLVPFRERFEELLVFVPHMRRFLSRKKIRHHIYVLNQVDHFRFNRAALINVGFLESSNSTDYIAMHDVDLLPLNEELDYGFPEAGPFHVASPELHPLYQYKTYVGGILLLSKQHYRLCNGMSNRFWGWGREDDEFYRRIKGAGLQLFRPSGITTGYKTFRHLHDPAWRKRDQKRIAAQKQEQFKVDREGGLNTVKYHVASRTALSVGGAPCTVLNIMLDCDKTATPWCTFS
notes: as for B1
In the case of B10, in series [3], the Km is 330 ± 20 µM, the kcat came out at 1.62 ± 0.04 s⁻¹ and the kcat/Km was 4920 M⁻¹ s⁻¹. In series [4], the Km worked out at 550 ± 20 µM, the turnover number (kcat) came to 1.62 ± 0.04 s⁻¹ and the kcat/Km was determined as 2950 M⁻¹ s⁻¹.
